Test results as given in patent publication US20260250420A1 (SICHUAN KELUN BIOTECH BIOPHARMACEUTICAL, published 2026).

What was measured:
[1] = target: T1, human PTK7 on cells (tumor cells endogenously expressing PTK7); CHO-hPTK7, CHO-S-hPTK7 and 293T-hPTK7 … (human, UniProt Q13308 31-1070); test: cell-based or functional assay
T1 sequence (looked up): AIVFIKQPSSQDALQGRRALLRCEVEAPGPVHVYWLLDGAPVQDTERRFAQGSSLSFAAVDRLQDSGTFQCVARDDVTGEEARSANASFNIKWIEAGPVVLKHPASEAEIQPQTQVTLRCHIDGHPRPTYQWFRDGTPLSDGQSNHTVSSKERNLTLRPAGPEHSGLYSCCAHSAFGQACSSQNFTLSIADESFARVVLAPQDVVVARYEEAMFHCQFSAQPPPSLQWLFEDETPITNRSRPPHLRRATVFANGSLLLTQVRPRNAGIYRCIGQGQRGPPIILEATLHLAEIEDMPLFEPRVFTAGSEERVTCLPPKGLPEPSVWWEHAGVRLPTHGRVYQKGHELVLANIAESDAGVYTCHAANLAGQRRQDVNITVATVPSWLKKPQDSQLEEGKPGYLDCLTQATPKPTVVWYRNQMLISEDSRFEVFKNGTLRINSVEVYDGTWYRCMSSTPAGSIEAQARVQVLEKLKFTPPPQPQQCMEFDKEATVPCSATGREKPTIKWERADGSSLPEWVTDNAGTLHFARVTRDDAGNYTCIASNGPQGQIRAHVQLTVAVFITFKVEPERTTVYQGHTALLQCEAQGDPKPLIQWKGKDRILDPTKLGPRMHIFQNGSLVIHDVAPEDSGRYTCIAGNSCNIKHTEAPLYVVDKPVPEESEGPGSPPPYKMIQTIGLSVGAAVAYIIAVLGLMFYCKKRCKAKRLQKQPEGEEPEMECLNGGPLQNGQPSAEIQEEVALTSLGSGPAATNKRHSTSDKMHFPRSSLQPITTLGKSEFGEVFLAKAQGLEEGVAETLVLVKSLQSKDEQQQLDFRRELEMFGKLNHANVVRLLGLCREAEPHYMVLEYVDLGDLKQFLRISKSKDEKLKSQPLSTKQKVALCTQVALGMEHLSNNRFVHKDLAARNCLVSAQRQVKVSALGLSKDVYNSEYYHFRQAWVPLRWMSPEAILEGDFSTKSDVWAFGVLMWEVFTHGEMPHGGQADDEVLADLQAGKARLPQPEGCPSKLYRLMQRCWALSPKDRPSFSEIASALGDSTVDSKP

[2] = target: T2, human Fc receptor protein CD16a (human, UniProt P08637 17-208, biotinylated); test: BLI (ForteBio), biotinylated receptor on SA sensor, antibody in solution
T2 construct: Biotinylated protein captured on SA sensors
T2 sequence (P08637 17-208 limits assumed): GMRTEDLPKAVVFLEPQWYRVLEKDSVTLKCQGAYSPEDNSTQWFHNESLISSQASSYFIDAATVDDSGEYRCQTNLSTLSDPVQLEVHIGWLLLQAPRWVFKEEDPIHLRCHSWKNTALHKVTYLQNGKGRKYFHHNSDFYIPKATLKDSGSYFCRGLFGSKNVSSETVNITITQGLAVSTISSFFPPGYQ
From the text: (§1) The dynamic affinity of the antibodies 101A6HZ, 101A6HZm and Hu24 with human Fc receptor proteins CD16a, CD32a, CD32b, CD64 and FcRn was detected through ForteBio (Pall life sciences).

[3] = target: T3, human Fc receptor protein CD32a (human, UniProt P12318 34-217, biotinylated); test: as above
T3 construct: Biotinylated protein captured on SA sensors
T3 sequence (looked up): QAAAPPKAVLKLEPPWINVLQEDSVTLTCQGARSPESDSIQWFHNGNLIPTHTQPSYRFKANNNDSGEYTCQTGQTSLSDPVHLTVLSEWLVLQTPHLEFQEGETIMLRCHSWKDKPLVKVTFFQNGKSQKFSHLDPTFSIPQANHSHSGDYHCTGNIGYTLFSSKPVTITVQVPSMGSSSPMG
From the text: as §1

[4] = target: T4, human Fc receptor protein CD32b (human, UniProt P31994 43-217, biotinylated); test: as above
T4 construct: Biotinylated protein captured on SA sensors
T4 sequence (looked up): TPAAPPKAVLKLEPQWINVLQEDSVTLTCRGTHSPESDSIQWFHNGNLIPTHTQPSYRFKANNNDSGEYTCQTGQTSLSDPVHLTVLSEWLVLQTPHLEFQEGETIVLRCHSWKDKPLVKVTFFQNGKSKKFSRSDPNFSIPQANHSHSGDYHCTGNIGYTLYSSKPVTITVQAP
From the text: as §1

[5] = target: T5, human Fc receptor protein CD64 (human, UniProt P12314 16-292, limits assumed, biotinylated); test: as above
T5 construct: Biotinylated protein captured on SA sensors
T5 sequence (P12314 16-292 limits assumed): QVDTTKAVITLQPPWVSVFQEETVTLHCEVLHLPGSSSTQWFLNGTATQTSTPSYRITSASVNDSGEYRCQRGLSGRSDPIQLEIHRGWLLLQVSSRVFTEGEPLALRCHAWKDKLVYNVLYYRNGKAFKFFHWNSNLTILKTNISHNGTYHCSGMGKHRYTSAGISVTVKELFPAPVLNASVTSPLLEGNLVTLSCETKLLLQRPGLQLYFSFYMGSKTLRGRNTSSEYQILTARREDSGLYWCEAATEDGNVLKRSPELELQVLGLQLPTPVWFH
From the text: as §1

[6] = target: T6, human Fc receptor protein FcRn (human, UniProt P55899 24-297; P61769 21-119, biotinylated); test: BLI (ForteBio), biotinylated receptor on SA sensor, antibody from 5,000 nM, 1:1 global fit
T6 construct: Biotinylated protein captured on SA sensors
From the text: as §1

Cell endocytosis, EC50, A431 cells [1]: 0.0732 µg/mL | Cell endocytosis, EC50, HCC1806 cells [1]: 0.0576 µg/mL | Cell endocytosis, EC50, NCI-H358 cells [1]: 0.0729 µg/mL | Cell endocytosis, EC50, OVCAR3 cells [1]: 0.0665 µg/mL | Kd [6]: 16.6 nM
B1: 101A6HZm (101A6HZ with mutant human heavy chain constant region IgG1m) (antibody)
heavy: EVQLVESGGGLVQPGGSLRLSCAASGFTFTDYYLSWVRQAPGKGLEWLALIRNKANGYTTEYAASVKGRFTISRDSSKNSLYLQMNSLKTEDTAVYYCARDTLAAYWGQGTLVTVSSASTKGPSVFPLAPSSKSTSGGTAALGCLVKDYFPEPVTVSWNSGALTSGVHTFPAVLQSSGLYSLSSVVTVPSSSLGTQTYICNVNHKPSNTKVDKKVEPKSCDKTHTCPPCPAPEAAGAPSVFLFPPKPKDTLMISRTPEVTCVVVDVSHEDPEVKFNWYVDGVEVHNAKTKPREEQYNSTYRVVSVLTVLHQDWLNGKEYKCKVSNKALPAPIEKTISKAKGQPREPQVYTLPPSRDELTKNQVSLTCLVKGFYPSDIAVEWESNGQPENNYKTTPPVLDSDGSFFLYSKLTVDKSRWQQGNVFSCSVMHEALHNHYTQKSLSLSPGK
light: DIVMTQSPDSLAVSLGERATINCKASQDVGSAVIWYQQKPGQSPKLLIYWASTRHTGVPDRFSGSGSGTDFTLTISSLQAEDVAVYYCQQYSSYPLTFGQGTKLEIKRTVAAPSVFIFPPSDEQLKSGTASVVCLLNNFYPREAKVQWKVDNALQSGNSQESVTEQDSKDSTYSLSSTLTLSKADYEKHKVYACEVTHQGLSSPVTKSFNRGEC
notes: light chain as in 101A6HZ; also called anti-human PTK7 humanized mutant antibody
binding result [2]: no binding (tested: initial concentration of 5,000 nM) | binding result [3]: no binding (tested: initial concentration of 5,000 nM) | binding result [4]: no binding (tested: initial concentration of 5,000 nM) | binding result [5]: no binding (tested: initial concentration of 5,000 nM)
